Our source for the reduction of binding against WT KLC1 values is doi:10.1101/2020.02.02.931204.

The assay has as its target HA-SFPQ (human) (UniProt P23246). The assay can be described thus: co-IP.

Chain of Myc-KLC1 ΔTail (domain or fragment) (O88447 whole entry, stated change not applied, the tested form may be a part): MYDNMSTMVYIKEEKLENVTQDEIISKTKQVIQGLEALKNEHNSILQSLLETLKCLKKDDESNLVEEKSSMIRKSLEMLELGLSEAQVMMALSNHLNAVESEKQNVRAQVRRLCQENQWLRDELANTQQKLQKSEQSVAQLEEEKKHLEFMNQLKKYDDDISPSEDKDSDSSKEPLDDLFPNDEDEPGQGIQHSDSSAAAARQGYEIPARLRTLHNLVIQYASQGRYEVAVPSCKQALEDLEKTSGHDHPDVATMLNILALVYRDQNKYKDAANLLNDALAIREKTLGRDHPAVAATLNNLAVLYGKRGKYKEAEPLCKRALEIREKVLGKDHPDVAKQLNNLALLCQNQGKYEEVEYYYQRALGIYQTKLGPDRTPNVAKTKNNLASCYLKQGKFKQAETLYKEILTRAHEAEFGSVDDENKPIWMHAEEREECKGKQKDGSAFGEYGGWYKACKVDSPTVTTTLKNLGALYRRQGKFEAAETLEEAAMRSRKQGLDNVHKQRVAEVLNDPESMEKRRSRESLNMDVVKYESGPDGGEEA
Chain of HA-SFPQ (human) (P23246 whole entry): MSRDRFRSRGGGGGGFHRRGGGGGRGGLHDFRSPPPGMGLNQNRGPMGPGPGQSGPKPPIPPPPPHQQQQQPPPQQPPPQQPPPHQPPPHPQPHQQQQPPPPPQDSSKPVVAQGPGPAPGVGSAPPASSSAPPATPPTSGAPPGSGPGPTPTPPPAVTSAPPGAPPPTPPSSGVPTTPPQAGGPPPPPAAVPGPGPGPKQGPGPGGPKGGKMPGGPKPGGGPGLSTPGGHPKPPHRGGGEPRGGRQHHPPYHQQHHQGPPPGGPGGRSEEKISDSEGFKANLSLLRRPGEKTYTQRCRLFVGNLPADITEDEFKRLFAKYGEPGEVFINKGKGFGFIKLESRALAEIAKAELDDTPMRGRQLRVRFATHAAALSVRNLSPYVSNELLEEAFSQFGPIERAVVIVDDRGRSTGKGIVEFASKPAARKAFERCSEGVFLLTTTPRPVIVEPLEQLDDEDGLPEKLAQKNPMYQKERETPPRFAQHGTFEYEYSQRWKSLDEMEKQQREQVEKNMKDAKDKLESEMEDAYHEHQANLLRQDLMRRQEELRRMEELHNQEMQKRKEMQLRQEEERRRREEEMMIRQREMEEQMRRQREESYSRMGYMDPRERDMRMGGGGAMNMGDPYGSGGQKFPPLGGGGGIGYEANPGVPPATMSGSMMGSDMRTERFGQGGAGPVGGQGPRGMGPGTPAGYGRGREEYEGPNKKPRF

Substance Myc-KLC1 ΔTail (domain or fragment) had a reduction of binding against WT KLC1 of 50%.
